The results in this text go back to US8691225B2, “Antibodies against the ectodomain of ErbB3 and uses thereof” (Merrimack Pharmaceuticals, Inc., priority 2007, dated 2014).

Broadly, the IC50 is the point on the concentration scale where inhibition reaches its midpoint. A higher IC50 goes with weaker potency.

Test [1] deals with T1, ErbB3 (Homo sapiens, UniProt P21860). Description: Surface Plasmon Resonance Assay. The format is binding.
Test [2] concerns the target T1, ErbB3. Description: Kinetic Exclusion Assay (KinExA). The format is binding. For orientation: In KinExA the mixture passes briefly over coated beads that capture the unbound partner.
Test [3] deals with Colo357 (pancreatic) xenograft. The experiment in a line: xenograft tumor growth in nude mice. The class given is in vivo, mouse.
In test [4] the test system is DU145 (a prostate tumor cell line) xenograft tumors. Description: DU145 xenograft combination therapy. The format is in vivo, mouse. The note with it: Ab #6 300 μg IP every three days; taxol 20 mg/kg IP once per week. The procedure: In a second experiment, mice bearing DU145 (a prostate tumor cell line) xenograft tumors are prepared by establishing tumors subcutaneously in the flanks of nude mice (Charles River Laboratories). […] Again, tumor size is measured twice a week and measurements are used to calculate tumor volume.

Test [5] deals with HGF induced ErbB3 phosphorylation in AdrR cells. The experiment in a line: HGF induced ErbB3 phosphorylation in AdrR cells. The class given is cell-based, human. The procedure:
Various ligands are tested for inducement of ErBb3 phosphorylation. At least three ligands, HRG, BTC, and HGF, are able to stimulate ErbB3 induced phosphorylation in AdrR cells, while EGF can not. […] Further, as known in the art (see, e.g., Wallenius et al. (2000) Am J Pathol. 156 (3):821-9), enhanced HGF signaling has been reported in various epithelial and non-epithelial tumors.
c-MET-ErbB3 interactions also occur in AdrR cells carrying the wild type EGFR and is not dependent on amplified c-MET.

For test [6], the system named is Du145 (prostate) xenograft. Description: xenograft tumor growth in nude mice. The class given is in vivo, mouse.
The test system of test [7] is AdrR ovarian cancer cells. Description: CellTiter-Glo proliferation assay. Conditions: 96 hours. The class given is cell-based, human. The procedure:
(§1) MALME3M, ACHN and NCI/AdrR cells are seeded in 96 well tissue culture plates and grown in RPMI-1640 media supplemented with antibiotics, 2 mM L-glutamine and 10% FBS for 24 hours at 37 degrees Celsius and 5% carbon dioxide. […] Cells are grown for 96 hours at 37° C. and 5% carbon dioxide, then harvested with CellTiter-Glo® Luminescent Cell Viability Assay (Promega, G7573) and analyzed on a luminometer. Media containing no serum and antibody is used as control.
(In general: ATP-based viability assays read luminescence as a measure of living cells.)

Another test deals with ACHN cells. Description: CellTiter-Glo proliferation assay. Conditions: 96 hours. The format is cell-based, human. The procedure:
as §1

Another test concerns MALME-3M cells. Description: CellTiter-Glo proliferation assay. The class given is cell-based, human. Conditions: 96 hours. The procedure:
as §1

Test [8] has as its target T2, ErbB3 receptors on MALME-3M cells (Homo sapiens, UniProt P21860).
T2 construct: ErbB3 expressed on MALME-3M melanoma cells; host or cells: MALME-3M melanoma cells
Description: downregulation of ErbB3 receptors on MALME-3M cells by FACS. The note with it: 100 nM. The format is cell-based. The procedure: MALME-3M cells are trypsinized from a 15 cm dish and washed once with RPMI+10% FBS. Cell pellets are resuspended at a density of 1×10^6 cells per ml. Two aliquots of 2×10^5 cells are added to separate wells in a 12-well tissue culture plate and each resuspended in a final volume of 800 ul RPMI+10% FBS.
Cells are washed twice with 1 ml BD stain buffer and incubated with 100 ul of a 1:500 dilution of Alexa 647-labeled goat anti-human Alexa 647 for 45 minutes on ice. Cells are then washed and resuspended in 300 ul BD stain buffer+0.5 ug/ml propidium iodide. Analysis of 10,000 cells is done in a FACSCALIBUR flow cytometer using the FL4 channel.
Background: In flow cytometry, cells or beads pass a laser one at a time.

For a further test, the target named is T3, ErbB3 in AdrR xenografts (Homo sapiens, UniProt P21860).
T3 construct: host or cells: AdrR (NCI/AdrR) ovarian cancer cells
The experiment in a line: total ErbB3 in AdrR xenografts in vivo by ELISA. Also noted: species or system mouse. The method, then: Briefly, the samples were pulverized in a cryopulverizer (Covaris Inc). Tumors were stored in special bags (pre-weighed before the addition of the tumor) and placed in liquid nitrogen while handling them. For small tumors, 200 μL of Lysis buffer was first added to the bag with the tumor, frozen in liquid nitrogen and then pulverized to improve the recovery of the tumor from the bag. Pulverized tumors were transferred to 2 ml EPPENDORF tubes and placed in liquid nitrogen until lysed. Tumors were lysed in Lysis buffer supplemented with protease and phosphatase inhibitors. Lysis Buffer was added to the tumor aliquots in a final concentration of 62.5 mg/ml. Tumor samples were homogenized by vortexing for 30 seconds and letting them sit on ice for 30 min. The lysates were spun for 10 minutes in QIAGEN […] columns for further homogenization of the samples. Cleared lysates were aliquoted into fresh tubes.
The BCA assay is performed as set forth substantially as described in the materials and methods section supra.
The total levels of ErbB3 were determined by ELISA. The ELISA reagents were purchased from R&D Systems as DUOSET kits. […] Fifty microliters of SUPERSIGNAL ELISA Pico substrate was added and readout was performed on a Fusion plate reader. Data was analyzed using Microsoft EXCEL. […]

Test [9] has as its system three different xenografts. The experiment in a line: VEGF secretion in xenografts in vivo. The source says:
Inhibition of VEGF correlates with inhibition of ErbB3 phosphorylation (FIG. 24C). […] Inhibition of VEGF secretion is also known in the art to correlate with inhibition of tumor induced angiogenesis, a facilitator of tumor growth.

[10] abbreviates: 300 ug every three days (Q3d), p<0.05.

B1: Ab #6: human anti-ErbB3 antibody from Fab-phage library, CDRs SEQ ID NOs:7-12; used as IgG1 and IgG2 isotypes; in phase I trials as MM-121 (antibody, V domains shown)
VH: EVQLLESGGGLVQPGGSLRLSCAASGFTFSHYVMAWVRQAPGKGLEWVSSISSSGGWTLYADSVKGRFTISRDNSKNTLYLQMNSLRAEDTAVYYCTRGLKMATIFDYWGQGTLVTVSS
VL: QSALTQPASVSGSPGQSITISCTGTSSDVGSYNVVSWYQQHPGKAPKLIIYEVSQRPSGVSNRFSGSKSGNTASLTISGLQTEDEADYYCCSYAGSSIFVIFGGGTKVTVL
Consider B1, for which the “competition with HRG for binding to ErbB3” value in the test with ErbB3 [1] is “competes with HRG for binding to ErbB3”. In the test with ErbB3 [2], this molecule yielded a dissociation rate of 0.00011 s⁻¹. Besides, the “inhibition of tumor growth” value in [3] (setting [10]) is reported as “significant inhibition of tumor growth”; in [3] (600 ug Q3d versus 300 ug), “further elevated”; in [3] (1500 ug Q3d versus 600 ug), “did not result in increased efficacy”; in [6] (setting [10]) it was “significant inhibition of tumor growth”; in test [6] (600 ug Q3d versus 300 ug) it was “further elevated”. Also, the “inhibition of tumor growth (tumor volume)” value in test [4] is “inhibited tumor growth”. The “inhibition of HGF induced ErbB3 phosphorylation” value in [5] (AdrR cells) is listed as “inhibits HGF induced ErbB3 phosphorylation”. In [5] (HGF induced ErbB3 phosphorylation in AdrR cells (FIG. 28)), the IC50 amounted to 0.244 nM. Further, the inhibition of proliferation entry in [7] is “about 30.5%”; in the test with ACHN cells, “about 25.4%”; with MALME-3M cells, “about 19.6%”. Also, the “downregulation of ErbB3 on MALME-3M cells” value in test [8] (IgG1 isotype) was “about 62%”; in [8] (IgG2 isotype), “about 66%”. The “downregulation of ErbB3 in xenografts” value in the test with ErbB3 in AdrR xenografts is “downregulated ErbB3”. Moreover, in [9], the “inhibition of VEGF secretion in vivo” value is reported as “inhibiting VEGF secretion in three different xenografts, the highest being in COLO-357 xenograft”.
